What was measured:
Assay in all cases: biochemical
266 human kinases [1] = target: 266 human kinases (Homo sapiens, UniProt Q5VT25); format: biochemical; conditions: MRCKα(h); 100 μM
Procedure, shortened: (§1)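 Inhibition was judged from reduced transfer of labelled phosphate from ATP to a positively charged substrate, which was captured on a negatively charged membrane and quantified by scintillation counting against a 100% activity control.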

266 human kinases [2] = target: 266 human kinases (Homo sapiens, UniProt Q00526); format: biochemical; conditions: CDK3/cyclinE(h); 100 μM
Chain of 266 human kinases (Homo sapiens, UniProt Q00526) (Q00526 whole entry): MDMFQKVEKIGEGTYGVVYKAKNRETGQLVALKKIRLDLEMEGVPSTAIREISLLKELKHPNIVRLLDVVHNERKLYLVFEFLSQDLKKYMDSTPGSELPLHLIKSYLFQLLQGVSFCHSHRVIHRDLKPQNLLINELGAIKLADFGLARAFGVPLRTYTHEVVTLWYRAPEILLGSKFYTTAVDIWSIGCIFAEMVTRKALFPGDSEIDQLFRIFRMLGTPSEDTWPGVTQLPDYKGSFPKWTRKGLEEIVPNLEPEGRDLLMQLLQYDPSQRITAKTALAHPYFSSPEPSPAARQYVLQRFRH
Procedure, shortened: as §1

266 human kinases [3] = target: 266 human kinases (Homo sapiens, UniProt Q15349); format: biochemical; conditions: Rsk3(h); 100 μM
Chain of 266 human kinases (Homo sapiens, UniProt Q15349) (Q15349 whole entry): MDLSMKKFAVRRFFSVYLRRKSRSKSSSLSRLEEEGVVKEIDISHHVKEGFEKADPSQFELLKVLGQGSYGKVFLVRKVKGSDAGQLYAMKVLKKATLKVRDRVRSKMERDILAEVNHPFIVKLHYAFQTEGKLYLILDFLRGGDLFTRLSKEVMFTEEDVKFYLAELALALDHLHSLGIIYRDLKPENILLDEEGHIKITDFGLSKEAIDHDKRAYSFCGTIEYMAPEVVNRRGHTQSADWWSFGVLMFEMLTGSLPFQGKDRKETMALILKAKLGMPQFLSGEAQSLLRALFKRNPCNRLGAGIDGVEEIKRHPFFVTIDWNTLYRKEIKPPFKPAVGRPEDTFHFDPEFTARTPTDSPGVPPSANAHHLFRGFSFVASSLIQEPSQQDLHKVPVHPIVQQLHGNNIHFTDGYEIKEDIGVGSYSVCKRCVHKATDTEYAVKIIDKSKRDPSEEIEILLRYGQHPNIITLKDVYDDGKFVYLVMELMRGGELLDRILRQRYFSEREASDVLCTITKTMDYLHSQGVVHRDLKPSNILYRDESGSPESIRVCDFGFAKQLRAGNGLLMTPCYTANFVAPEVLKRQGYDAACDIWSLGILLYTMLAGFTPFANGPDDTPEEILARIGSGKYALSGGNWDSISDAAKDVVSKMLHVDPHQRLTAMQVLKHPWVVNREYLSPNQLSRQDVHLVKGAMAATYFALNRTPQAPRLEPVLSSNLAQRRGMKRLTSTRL
Procedure, shortened: as §1

266 human kinases [4] = target: T1, 266 human kinases (Homo sapiens, UniProt P54753); format: biochemical; conditions: EphB3(h); 100 μM
T1 sequence (P54753 34-998): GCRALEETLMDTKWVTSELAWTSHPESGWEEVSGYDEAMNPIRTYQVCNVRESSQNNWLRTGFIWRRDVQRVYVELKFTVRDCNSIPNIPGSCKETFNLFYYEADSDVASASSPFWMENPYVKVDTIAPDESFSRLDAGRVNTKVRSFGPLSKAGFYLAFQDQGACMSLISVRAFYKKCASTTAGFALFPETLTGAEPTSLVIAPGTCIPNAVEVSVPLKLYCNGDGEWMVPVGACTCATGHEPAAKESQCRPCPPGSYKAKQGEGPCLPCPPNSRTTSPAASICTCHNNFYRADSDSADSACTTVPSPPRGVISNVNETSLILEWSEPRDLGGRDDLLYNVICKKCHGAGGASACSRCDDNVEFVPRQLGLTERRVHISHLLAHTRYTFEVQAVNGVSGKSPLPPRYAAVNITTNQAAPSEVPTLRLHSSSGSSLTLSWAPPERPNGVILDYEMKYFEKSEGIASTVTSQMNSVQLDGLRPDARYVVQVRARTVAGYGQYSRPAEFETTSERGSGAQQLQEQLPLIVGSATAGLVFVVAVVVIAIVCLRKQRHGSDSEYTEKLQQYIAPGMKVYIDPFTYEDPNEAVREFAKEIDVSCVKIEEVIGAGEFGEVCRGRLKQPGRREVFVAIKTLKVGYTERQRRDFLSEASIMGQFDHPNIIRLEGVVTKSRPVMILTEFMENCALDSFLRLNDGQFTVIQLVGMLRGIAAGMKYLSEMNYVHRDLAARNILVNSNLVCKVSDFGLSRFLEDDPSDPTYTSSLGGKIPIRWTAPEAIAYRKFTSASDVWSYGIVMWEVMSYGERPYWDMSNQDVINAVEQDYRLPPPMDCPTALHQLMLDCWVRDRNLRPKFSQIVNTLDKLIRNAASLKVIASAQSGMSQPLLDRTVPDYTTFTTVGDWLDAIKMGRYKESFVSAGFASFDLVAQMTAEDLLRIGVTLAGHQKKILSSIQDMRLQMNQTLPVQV
Procedure, shortened: as §1

266 human kinases [5] = target: 266 human kinases (Homo sapiens, UniProt Q16539); format: biochemical; conditions: SAPK2a(h); 100 μM
Chain of 266 human kinases (Homo sapiens, UniProt Q16539) (Q16539 whole entry): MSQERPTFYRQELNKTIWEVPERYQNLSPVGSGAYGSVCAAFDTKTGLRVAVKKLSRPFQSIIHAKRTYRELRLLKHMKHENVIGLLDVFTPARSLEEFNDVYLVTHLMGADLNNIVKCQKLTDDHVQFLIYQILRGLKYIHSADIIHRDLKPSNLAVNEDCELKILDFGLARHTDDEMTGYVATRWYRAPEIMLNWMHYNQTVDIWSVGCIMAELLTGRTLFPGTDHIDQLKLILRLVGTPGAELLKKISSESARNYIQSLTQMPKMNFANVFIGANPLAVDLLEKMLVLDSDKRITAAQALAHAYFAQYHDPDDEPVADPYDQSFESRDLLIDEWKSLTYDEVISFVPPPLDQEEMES
Procedure, shortened: as §1

266 human kinases [6] = target: 266 human kinases (Homo sapiens, UniProt P28482); format: biochemical; conditions: MAPK2(h); 100 μM
Chain of 266 human kinases (Homo sapiens, UniProt P28482) (P28482 whole entry): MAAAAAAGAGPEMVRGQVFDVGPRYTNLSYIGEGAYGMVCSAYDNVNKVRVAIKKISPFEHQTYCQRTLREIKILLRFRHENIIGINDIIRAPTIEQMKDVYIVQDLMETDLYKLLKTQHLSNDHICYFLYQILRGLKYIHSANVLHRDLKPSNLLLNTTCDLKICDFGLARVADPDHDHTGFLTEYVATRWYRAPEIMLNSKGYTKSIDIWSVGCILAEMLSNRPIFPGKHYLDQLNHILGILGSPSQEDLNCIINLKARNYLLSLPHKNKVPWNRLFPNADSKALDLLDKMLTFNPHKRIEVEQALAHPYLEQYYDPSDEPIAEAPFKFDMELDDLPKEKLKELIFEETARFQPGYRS
Procedure, shortened: as §1

266 human kinases [7] = target: 266 human kinases (Homo sapiens, UniProt O14757); format: biochemical; conditions: CHK1(h); 100 μM
Chain of 266 human kinases (Homo sapiens, UniProt O14757) (O14757 whole entry): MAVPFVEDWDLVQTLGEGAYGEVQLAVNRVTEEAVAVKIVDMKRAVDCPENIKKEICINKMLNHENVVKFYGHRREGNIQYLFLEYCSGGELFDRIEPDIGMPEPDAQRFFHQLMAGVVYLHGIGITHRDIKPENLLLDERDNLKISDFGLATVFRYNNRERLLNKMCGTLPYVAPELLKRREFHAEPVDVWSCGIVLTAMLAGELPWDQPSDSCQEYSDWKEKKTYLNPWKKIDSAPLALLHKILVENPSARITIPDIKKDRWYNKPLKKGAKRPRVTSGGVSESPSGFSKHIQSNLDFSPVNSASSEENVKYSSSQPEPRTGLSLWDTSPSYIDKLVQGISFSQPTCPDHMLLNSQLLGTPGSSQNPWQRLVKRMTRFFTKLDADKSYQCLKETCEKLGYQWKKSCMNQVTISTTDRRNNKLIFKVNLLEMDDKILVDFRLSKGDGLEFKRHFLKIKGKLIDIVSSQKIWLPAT
Procedure, shortened: as §1

266 human kinases [8] = target: 266 human kinases (Homo sapiens, UniProt P16234, V561D); format: biochemical; conditions: PDGFRα(V561D)(h); 100 μM
Chain of 266 human kinases (Homo sapiens, UniProt P16234, V561D) (P16234 24-1089 V561D): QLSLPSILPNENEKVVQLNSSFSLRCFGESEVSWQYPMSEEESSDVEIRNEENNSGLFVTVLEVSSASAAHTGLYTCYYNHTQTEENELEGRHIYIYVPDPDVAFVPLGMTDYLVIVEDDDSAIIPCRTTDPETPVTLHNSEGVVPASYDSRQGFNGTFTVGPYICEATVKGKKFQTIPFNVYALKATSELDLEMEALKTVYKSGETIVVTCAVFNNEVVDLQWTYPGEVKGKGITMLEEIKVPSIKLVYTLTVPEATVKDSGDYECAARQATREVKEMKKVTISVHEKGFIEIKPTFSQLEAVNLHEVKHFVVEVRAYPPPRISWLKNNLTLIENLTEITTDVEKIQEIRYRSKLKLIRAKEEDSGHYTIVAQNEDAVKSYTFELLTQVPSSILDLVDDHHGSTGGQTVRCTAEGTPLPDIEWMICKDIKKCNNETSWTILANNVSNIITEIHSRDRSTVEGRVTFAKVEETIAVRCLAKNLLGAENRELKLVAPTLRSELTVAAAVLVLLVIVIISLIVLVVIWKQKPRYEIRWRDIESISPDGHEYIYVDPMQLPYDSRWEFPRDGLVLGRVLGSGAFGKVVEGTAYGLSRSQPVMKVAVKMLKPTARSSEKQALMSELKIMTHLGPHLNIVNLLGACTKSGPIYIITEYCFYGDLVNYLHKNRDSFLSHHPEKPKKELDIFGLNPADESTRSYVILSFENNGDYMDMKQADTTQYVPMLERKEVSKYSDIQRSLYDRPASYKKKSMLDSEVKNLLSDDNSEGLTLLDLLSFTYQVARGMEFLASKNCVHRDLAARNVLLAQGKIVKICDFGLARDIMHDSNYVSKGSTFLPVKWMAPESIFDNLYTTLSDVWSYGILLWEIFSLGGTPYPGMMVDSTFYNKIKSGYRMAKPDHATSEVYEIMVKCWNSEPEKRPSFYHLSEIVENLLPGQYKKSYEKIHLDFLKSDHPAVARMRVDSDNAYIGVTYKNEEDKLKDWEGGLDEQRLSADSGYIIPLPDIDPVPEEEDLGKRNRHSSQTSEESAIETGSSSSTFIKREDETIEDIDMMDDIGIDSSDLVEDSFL
Procedure, shortened: as §1

266 human kinases [9] = target: T2, 266 human kinases (Homo sapiens, UniProt P51817); format: biochemical; conditions: PrKX(h); 100 μM
T2 sequence (P51817 1-358): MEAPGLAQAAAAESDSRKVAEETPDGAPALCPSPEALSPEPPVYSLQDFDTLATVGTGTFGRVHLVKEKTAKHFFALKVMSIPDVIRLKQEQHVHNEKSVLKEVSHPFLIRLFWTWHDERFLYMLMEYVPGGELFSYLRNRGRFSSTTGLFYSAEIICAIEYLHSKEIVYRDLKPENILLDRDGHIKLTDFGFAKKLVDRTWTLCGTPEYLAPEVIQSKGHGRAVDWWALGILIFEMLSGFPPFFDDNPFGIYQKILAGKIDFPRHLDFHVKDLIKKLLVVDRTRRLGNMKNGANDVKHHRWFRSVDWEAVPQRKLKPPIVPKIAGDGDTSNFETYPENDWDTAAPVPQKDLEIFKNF
Procedure, shortened: as §1

266 human kinases [10] = target: 266 human kinases (Homo sapiens, UniProt P53355); format: biochemical; conditions: DAPK1(h); 100 μM
Chain of 266 human kinases (Homo sapiens, UniProt P53355) (P53355 whole entry): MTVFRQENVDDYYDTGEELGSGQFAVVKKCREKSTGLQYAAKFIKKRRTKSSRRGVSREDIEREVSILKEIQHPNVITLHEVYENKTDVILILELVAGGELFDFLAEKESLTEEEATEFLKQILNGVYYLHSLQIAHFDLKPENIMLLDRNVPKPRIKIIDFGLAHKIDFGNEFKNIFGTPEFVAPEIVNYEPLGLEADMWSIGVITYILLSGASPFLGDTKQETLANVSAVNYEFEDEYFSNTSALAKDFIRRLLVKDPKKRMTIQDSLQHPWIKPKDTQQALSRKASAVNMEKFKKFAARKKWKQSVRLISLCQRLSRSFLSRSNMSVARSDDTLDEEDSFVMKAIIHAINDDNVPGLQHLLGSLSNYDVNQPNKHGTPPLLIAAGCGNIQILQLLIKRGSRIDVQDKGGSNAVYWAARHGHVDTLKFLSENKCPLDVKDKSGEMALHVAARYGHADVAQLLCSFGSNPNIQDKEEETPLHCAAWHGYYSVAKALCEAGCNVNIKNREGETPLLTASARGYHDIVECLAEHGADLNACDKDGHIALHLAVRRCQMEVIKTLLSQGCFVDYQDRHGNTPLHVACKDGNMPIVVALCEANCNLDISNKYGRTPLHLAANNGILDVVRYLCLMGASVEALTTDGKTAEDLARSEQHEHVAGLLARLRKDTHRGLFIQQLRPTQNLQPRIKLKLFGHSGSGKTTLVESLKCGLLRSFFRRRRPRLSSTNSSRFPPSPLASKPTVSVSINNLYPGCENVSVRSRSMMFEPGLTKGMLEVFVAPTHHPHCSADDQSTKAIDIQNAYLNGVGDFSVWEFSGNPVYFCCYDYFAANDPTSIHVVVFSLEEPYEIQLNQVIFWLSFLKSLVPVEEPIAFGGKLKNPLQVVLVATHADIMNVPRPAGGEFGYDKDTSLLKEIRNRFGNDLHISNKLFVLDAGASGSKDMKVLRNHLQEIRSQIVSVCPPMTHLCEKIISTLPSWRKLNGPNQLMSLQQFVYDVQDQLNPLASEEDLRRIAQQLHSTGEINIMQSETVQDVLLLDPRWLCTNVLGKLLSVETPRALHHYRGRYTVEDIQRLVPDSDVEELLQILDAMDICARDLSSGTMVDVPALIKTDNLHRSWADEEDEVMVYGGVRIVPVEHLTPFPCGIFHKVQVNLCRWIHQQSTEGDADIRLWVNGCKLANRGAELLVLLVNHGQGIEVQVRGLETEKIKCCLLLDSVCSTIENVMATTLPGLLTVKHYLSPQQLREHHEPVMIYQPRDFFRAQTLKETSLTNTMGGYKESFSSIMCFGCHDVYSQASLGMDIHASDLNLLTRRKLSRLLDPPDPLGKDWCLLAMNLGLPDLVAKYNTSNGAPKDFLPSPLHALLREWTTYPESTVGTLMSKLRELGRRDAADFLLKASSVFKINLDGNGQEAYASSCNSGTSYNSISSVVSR
Procedure, shortened: as §1

EphA2 (h) = EphA2 (h) (Homo sapiens, UniProt P29317); conditions: EphA2(h); 100 μM
From the text: (§2) Specifically, in these assays, a positively charged substrate is phosphorylated with a radiolabeled phosphate group from an ATP if the kinase is not inhibited by an inhibitor peptide. The positively charged substrate then is attracted to a negatively charged filter membrane, quantified with a scintillation counter, and compared to a 100% activity control.

Fgr (h) = Fgr (h) (Homo sapiens, UniProt P09769); conditions: Fgr(h); 100 μM
From the text: as §2

Yes (h) = Yes (h) (Homo sapiens, UniProt P07947); conditions: Yes(h); 100 μM
From the text: as §2

Sequence	% activity (266 human kinases [1]) [%]	% activity (266 human kinases [2]) [%]	% activity (266 human kinases [3]) [%]	% activity (266 human kinases [4]) [%]	% activity (266 human kinases [5]) [%]	% activity (266 human kinases [6]) [%]	% activity (266 human kinases [7]) [%]	% activity (266 human kinases [8]) [%]	% activity (266 human kinases [9]) [%]	% activity (266 human kinases [10]) [%]	% activity (EphA2 (h)) [%]	% activity (Fgr (h)) [%]	% activity (Yes (h)) [%]
HRRIKAWLKKIKALARQLGVAA (mammal) [MMI-0500]	5	8	23	79	52	60	65	146	57	0	–	–	–
YARAAARQARAKALNRQLGVA (mammal) [MMI-0200]	–	–	–	128	–	–	–	–	–	–	95	71	93

— US20140072613A1, “Compositions and Methods for Treating Cutaneous Scarring” (priority 2012, published 2014)
